{"source": "paper PMC11626941", "about": "“FBLN7 mediates vascular smooth muscle cell phenotype switching and vascular remodeling in hypertension” (Theranostics, 2024)", "proteins": {"B1": {"name": "Flag-tagged full-length mouse SDC4 (receptor, UniProt O35988 24-198, looked up)", "chain": "ESIRETEVIDPQDLLEGRYFSGALPDDEDAGGSDDFELSGSGDLDDTEEPRPFPEVIEPLVPLDNHIPENAQPGIRVPSEPKELEENEVIPKRAPSDVGDDMSNKVSMSSTAQGSNIFERTEVLAALIVGGVVGILFAVFLILLLVYRMKKKDEGSYDLGKKPIYKKAPTNEFYA", "notes": "Plasmids provided by GenePharma; Seen as monomer, dimer and tetramer bands on non-reducing blots; also called Flag-SDC4; Flag (SDC4); source: HEK293T, transfected (pcDNA 3.1), in lysate; not shown: Flag, C-terminal, kept"}}, "target": "the molecule itself", "test": "immunoblot with non-reducing loading buffer; HEK293T transfected with varying concentrations of SDC4 plasmids; SDS-PAGE, positions of SDC4 tetramer, dimer and monomer", "note": "Several values for one entry are separate records, joined by “and”; a condition that tells them apart may be missing. Equal values may be shown once."}
{"protein": "B1", "values": [{"measurement": "stoichiometry N", "value": "2 and 4"}]}
